Laboratory results as given in the supplement of paper PMC10126150.
± gives the standard deviation of the averaged measurements.

Test system: ATP
Assay: switch fluorescence ratio, 500 uM ATP over buffer (Cy3 cluster intensity, sum of 5 cycles each) (fold (ratio)); higher = stronger signal-on switching upon ATP binding; sequences stand for … in TCGTCGGCAGCGTCAGATGTGTATAAGAGACAGTTTTTTTTTTTTTTTTTTTTTTTTT…TC
Settings: aptamer strand: ATP DNA aptamer (quencher-CACCTGGGGGAGTATTGCGGAGGAAGG + anchor), 100 nM annealed; ATP concentration: 500 uM
Outline: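 Imaging in selection buffer was followed by imaging after 15 min with 500 uM ATP at 22 °C, for Cy3-labelled switching-strand clusters annealed to 100 nM quencher-labelled ATP aptamer on a modified Illumina MiSeq flow-cell. Five of these buffer/ATP cycles ran, separated by NaOH stripping and re-annealing. The fluorescence ratio per cluster is summed target-cycle over summed buffer-cycle Cy3 intensity, averaged per switch-domain sequence; clusters outside 100-1000 RFU were removed.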
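Also: ATP exposure 15 min at 22 °C before imaging.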

Sequence | switch fluorescence ratio
CGTTTGGGTA | 0.999 ± 0.041
CGTTTGTTTG | 0.988 ± 0.021
CGTTTTCGGG | 1.02 ± 0.016
CGTTTTGGGA | 0.98 ± 0.013
CGTTTTGTGC | 1.03 ± 0.042
CGTTTTTAAT | 1.01 ± 0.021
CGTTTTTGAA | 0.99 ± 0.025
CGTTTTTGCT | 0.961 ± 0.05
CGTTTTTTAG | 0.99 ± 0.022
CGTTTTTTAT | 1.02 ± 0.031
CTAAAACAGG | 1.02 ± 0.03
CTAAAACTTG | 1.14 ± 0.13
CTAAAATTGA | 0.985 ± 0.038
CTAAACCGGT | 0.989 ± 0.015
CTAAAGATCG | 1.03 ± 0.049
CTAAATATGA | 0.98 ± 0.035
CTAACATGTG | 0.998 ± 0.03
CTAACTCGC | 1.04 ± 0.011
CTAACTGAG | 1.03 ± 0.017
CTAAGCCAAT | 1.21 ± 0.023
CTAAGCCGTT | 0.971 ± 0.011
CTAAGGCATG | 1.05 ± 0.0013
CTAAGGCGTT | 0.999 ± 0.013
CTAAGGGATT | 1.01 ± 0.058
CTAATACTTG | 0.9791 ± 0.0024

Sequence | switch fluorescence ratio
CTAATAGGAG | 1.004 ± 0.0025
CTAATATGGG | 1.04 ± 0.021
CTAATCAAAT | 0.973 ± 0.019
CTAATCATCT | 1.01 ± 0.039
CTAATGTGCG | 1.15 ± 0.28
CTAATTGTGT | 0.9933 ± 0.0034
CTACCAGGGA | 1.149 ± 0.0019
CTACGAGCTG | 1.06 ± 0.021
CTACGGGGCG | 1.01 ± 0.061
CTAGAAGTAT | 1.024 ± 0.0033
CTAGAATGAT | 1.014 ± 0.0072
CTAGAGGGGG | 0.9711 ± 0.0094
CTAGATGCTT | 1.012 ± 0.0096
CTAGATGGGT | 1.01 ± 0.046
CTAGCTTACT | 1.36 ± 0.065
CTAGGAGCTT | 1 ± 0.044
CTAGGGGATG | 1.03 ± 0.062
CTAGGGTGGA | 1.05 ± 0.023
CTAGGGTTGT | 1.02 ± 0.045
CTAGGTAGGG | 0.997 ± 0.035
CTAGTACGGG | 1.04 ± 0.031
CTAGTCACGT | 1.003 ± 0.0031
CTAGTCGCGC | 1 ± 0.026
CTAGTTGGTA | 0.994 ± 0.027
CTATAACAAT | 1.02 ± 0.021

Sequence | switch fluorescence ratio
CTATACGGTA | 1.128 ± 0.0097
CTATCTTCGG | 0.974 ± 0.038
CTATGCTAGT | 1.01 ± 0.016
CTATGGAAGG | 0.98 ± 0.013
CTATGGGATG | 0.992 ± 0.039
CTATGGGGTG | 1.04 ± 0.04
CTATGTAAAT | 1.01 ± 0.031
CTATGTGGGT | 1.02 ± 0.048
CTATGTGTCA | 0.977 ± 0.05
CTATGTGTCT | 0.97 ± 0.043
CTATGTTATT | 1.01 ± 0.038
CTATGTTCGC | 0.954 ± 0.023
CTATTATAGT | 0.9844 ± 0.0034
CTATTATTCT | 0.983 ± 0.018
CTATTCCGAG | 1.16 ± 0.066
CTATTTACGA | 1.05 ± 0.015
CTATTTAGGG | 0.996 ± 0.024
CTATTTCTAC | 1.03 ± 0.046
CTATTTTAAG | 1.02 ± 0.051
CTCAAAAGA | 1.11 ± 0.077
CTCAAAAGTA | 1.09 ± 0.11
CTCAACGATT | 1.03 ± 0.048
CTCAAGACGG | 1.06 ± 0.012
CTCAAGGTGA | 1.45 ± 0.11
CTCAATAGCA | 1.036 ± 0.0037

Sequence | switch fluorescence ratio
CTCAATCGAA | 1.03 ± 0.026
CTCAATCGGG | 1.04 ± 0.021
CTCAATTCTG | 0.969 ± 0.031
CTCAGACAGC | 1.107 ± 0.0056
CTCAGAGAAG | 1.02 ± 0.058
CTCAGGGCCG | 1.05 ± 0.11
CTCAGGGGGG | 1.02 ± 0.04
CTCAGGTGGC | 1.04 ± 0.053
CTCATATAGC | 0.999 ± 0.019
CTCATCGGCT | 1.03 ± 0.03
CTCATCTAAT | 0.9821 ± 0.0081
CTCCATATGT | 1.039 ± 0.0016
CTCCGGTTTG | 2.03 ± 1.4
CTCCGTGGGG | 1.47 ± 0.042
CTCCTCAGTG | 2.26 ± 0.29
CTCGAGAGCT | 0.973 ± 0.018
CTCGATAGGA | 1.02 ± 0.0083
CTCGATGTGG | 0.985 ± 0.044
CTCGCACGTT | 1.03 ± 0.032
CTCGCAGGAA | 1.75 ± 0.078
CTCGCGTTAA | 1.11 ± 0.13
CTCGCTAGGA | 1.05 ± 0.019
CTCGCTCGTG | 1.03 ± 0.016
CTCGCTTTTT | 1.2 ± 0.29
CTCGGAACTA | 1.04 ± 0.03

Sequence | switch fluorescence ratio
CTCGGACAAG | 0.9964 ± 0.0058
CTCGGCCGGC | 0.982 ± 0.049
CTCGGGACTT | 0.9884 ± 0.0024
CTCGGGAGTA | 1 ± 0.042
CTCGGGCACG | 0.989 ± 0.046
CTCGGGGAGT | 1.012 ± 0.0064
CTCGGTTGAC | 1.07 ± 0.015
CTCGGTTGGT | 1.006 ± 0.0083
CTCGTACTTA | 1 ± 0.019
CTCGTCAATT | 1.52 ± 0.24
CTCGTCACTC | 1.232 ± 0.0097
CTCGTGTGTG | 1.044 ± 0.0073
CTCGTTCCGG | 0.997 ± 0.043
CTCGTTTTTG | 0.972 ± 0.012
CTCTACAGGG | 1.04 ± 0.042
CTCTGAGGTT | 1 ± 0.035
CTCTGCGGTT | 1.891 ± 0.0039
CTCTGTGTTA | 1.06 ± 0.015
CTCTTAAGGG | 1.01 ± 0.018
CTCTTGAATA | 0.9957 ± 0.0015
CTCTTTGCC | 1.17 ± 0.27
CTGAAAAATT | 1.01 ± 0.078
CTGAAAGAGT | 0.976 ± 0.026
CTGAAAGGGA | 1.01 ± 0.02
CTGAACTTTA | 1.04 ± 0.043

Sequence | switch fluorescence ratio
CTGAAGCTCA | 1.91 ± 0.044
CTGAAGGGAC | 1.15 ± 0.036
CTGAAGGGCT | 1.04 ± 0.017
CTGAATATTC | 1.021 ± 0.0036
CTGAATCCGT | 1.25 ± 0.036
CTGAATTAGT | 1.01 ± 0.019
CTGACTGCAG | 1.01 ± 0.049
CTGAGGATCG | 0.994 ± 0.034
CTGAGGCCCG | 0.984 ± 0.05
CTGAGGGCTG | 1.03 ± 0.028
CTGAGGGGCG | 1.04 ± 0.057
CTGAGGGGGG | 0.985 ± 0.019
CTGAGTATGT | 0.988 ± 0.015
CTGAGTCGTG | 1 ± 0.066
CTGAGTGGGA | 1.02 ± 0.013
CTGATAACAT | 1.02 ± 0.018
CTGATGAGAG | 0.997 ± 0.051
CTGATGTCGT | 1.01 ± 0.033
CTGATTCAGA | 0.98 ± 0.019
CTGCAACAGA | 1.0455 ± 0.00015
CTGCAACGGA | 1.13 ± 0.056
CTGCACCATG | 1.01 ± 0.028
CTGCCAATGG | 1.99 ± 0.053
CTGCCAGATG | 1.1 ± 0.054
CTGCCCGGCG | 1.03 ± 0.027

Sequence | switch fluorescence ratio
CTGCGGGGAT | 1.02 ± 0.027
CTGCGGGGGG | 0.999 ± 0.015
CTGCGGGGGT | 1.03 ± 0.038
CTGCGTGCGG | 0.99635 ± 0.00049
CTGCGTGGAG | 1.03 ± 0.026
CTGCTACAGT | 1.03 ± 0.02
CTGCTCCGAT | 1.21 ± 0.034
CTGGAAAACC | 1.02 ± 0.0058
CTGGAACAGT | 0.976 ± 0.015
CTGGAATAGC | 2.21 ± 0.3
CTGGAATGGG | 1.02 ± 0.056
CTGGACTTAC | 1.34 ± 0.052
CTGGAGACAG | 1.07 ± 0.018
CTGGATTTAA | 1.0192 ± 7.7e-05
CTGGCGCGGG | 1.02 ± 0.042
CTGGCTACGG | 1.01 ± 0.032
CTGGCTGCGG | 1.01 ± 0.039
CTGGGACCTA | 1.02 ± 0.027
CTGGGAGAGC | 1.05 ± 0.053
CTGGGAGTGT | 0.9946 ± 0.0092
CTGGGATTTT | 0.959 ± 0.0021
CTGGGCAGGG | 1.02 ± 0.055
CTGGGCGGTT | 0.9959 ± 0.0017
CTGGGGAAAC | 1.03 ± 0.064
CTGGGGAAAG | 1.02 ± 0.033

Sequence | switch fluorescence ratio
CTGGGGACCT | 1.1 ± 0.066
CTGGGGAGGA | 0.997 ± 0.028
CTGGGGAGGC | 1.06 ± 0.041
CTGGGGCAGA | 1.02 ± 0.011
CTGGGGGCAA | 3.2 ± 0.68
CTGGGGGTAA | 0.992 ± 0.02
CTGGGGGTAG | 1.01 ± 0.016
CTGGGGGTTG | 0.989 ± 0.044
CTGGGTCGGG | 0.992 ± 0.0079
CTGGGTGGGC | 0.993 ± 0.018
CTGGGTGTGC | 1.01 ± 0.02
CTGGTACAGA | 0.97 ± 0.13
CTGGTATTTG | 1.05 ± 0.041
CTGGTCACAG | 1 ± 0.024
CTGGTCATCT | 0.991 ± 0.011
CTGGTCGGCT | 1.09 ± 0.014
CTGGTCTATT | 0.968 ± 0.017
CTGGTGATTT | 1.05 ± 0.053
CTGGTGCCGA | 0.985 ± 0.015
CTGGTGGGGT | 1.02 ± 0.044
CTGGTGTCGA | 0.978 ± 0.013
CTGGTTACAC | 1.03 ± 0.033
CTGGTTAGGA | 1 ± 0.066
CTGGTTAGGC | 1.01 ± 0.034
CTGGTTTGCC | 0.974 ± 0.048
